Results as given in publication PMC7854593, “Molecular mechanism for vitamin C-derived C^5-glyceryl-methylcytosine DNA modification catalyzed by algal TET homologue CMD1” (Nature Communications, 2021).
Residue numbers refer to the chain shown, from its start.

What was measured:
[1] = target: T1, MBP-fused CMD1 (Chlamydomonas reinhardtii, UniProt A0A2K3D5Z7); assay: X-ray crystal structure, crystals soaked with sodium L-ascorbate; type: binding; conditions: Fe2+ in active site; pH 5.0-5.6 citrate; 400 mM soak; binary complex 7CY5 (2.20 A) and ternary complex with 5mC-DNA 7CY8 (2.40 A); lactone form, monodentate via C2-hydroxyl
T1 construct: full-length CMD1 with N-terminal MBP via alpha-helical linker and C-terminal His6, tags kept; expressed in E. coli; residues 509-532 disordered in apo crystal, C-terminal region partly degraded in crystals
T1 sequence (A0A2K3D5Z7 whole entry, the tested form may be a part): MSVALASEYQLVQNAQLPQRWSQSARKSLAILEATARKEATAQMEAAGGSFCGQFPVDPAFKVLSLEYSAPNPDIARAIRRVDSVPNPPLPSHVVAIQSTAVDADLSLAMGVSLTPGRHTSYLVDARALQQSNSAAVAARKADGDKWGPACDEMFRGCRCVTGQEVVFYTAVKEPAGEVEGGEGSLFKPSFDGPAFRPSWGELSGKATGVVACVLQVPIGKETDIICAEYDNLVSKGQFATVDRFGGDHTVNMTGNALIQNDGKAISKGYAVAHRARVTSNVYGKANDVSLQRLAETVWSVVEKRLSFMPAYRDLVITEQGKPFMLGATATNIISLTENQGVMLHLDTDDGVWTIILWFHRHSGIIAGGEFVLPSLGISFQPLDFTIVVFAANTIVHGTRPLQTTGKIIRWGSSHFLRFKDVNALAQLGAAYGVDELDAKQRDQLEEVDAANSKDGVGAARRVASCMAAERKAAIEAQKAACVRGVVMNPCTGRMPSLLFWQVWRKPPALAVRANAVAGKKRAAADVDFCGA

[2] = target: T2, MBP-CMD1 (UniProt A0A2K3D5Z7 1-532); assay: crystal structure; Fe2+; BLI: 20 mM Tris-HCl pH 8.0, 50 mM NaCl, 0.1% Tween-20, 0.5% BSA, 25 C; biotin-DNA on streptavidin sensors, 1:1 fit; conditions: protein: recombinant; tags: N-terminal MBP via alpha-helical linker; C-terminal His6; 10 bp palindromic duplex, 3' overhang 4 nt on both strands
T2 sequence (A0A2K3D5Z7 whole entry): as the sequence (A0A2K3D5Z7 whole entry, the tested form may be a part) above

[3] = target: T3, CMD1 (UniProt A0A2K3D5Z7 1-532); assay: BLI; range over dsDNA1-4; BLI: 20 mM Tris-HCl pH 8.0, 50 mM NaCl, 0.1% Tween-20, 0.5% BSA, 25 C; biotin-DNA on streptavidin sensors, 1:1 fit; conditions: protein: recombinant; tags: His6-SUMO, cleaved with ULP1; label: 5'-biotin
T3 sequence (A0A2K3D5Z7 whole entry): as the sequence (A0A2K3D5Z7 whole entry, the tested form may be a part) above

[4] = target: T3, CMD1; assay: BLI; range over dsDNA7-9; BLI: 20 mM Tris-HCl pH 8.0, 50 mM NaCl, 0.1% Tween-20, 0.5% BSA, 25 C; biotin-DNA on streptavidin sensors, 1:1 fit; conditions: protein: recombinant; tags: His6-SUMO, cleaved with ULP1; label: 5'-biotin
[5] = target: T2, MBP-CMD1; assay: BLI; BLI: 20 mM Tris-HCl pH 8.0, 50 mM NaCl, 0.1% Tween-20, 0.5% BSA, 25 C; biotin-DNA on streptavidin sensors, 1:1 fit; conditions: protein: recombinant; tags: N-terminal MBP via alpha-helical linker; C-terminal His6; label: 5'-biotin; 10 bp palindromic duplex, 3' overhang 4 nt on both strands
[6] = target: T3, CMD1; assay: as above; conditions: protein: recombinant, tags: His6-SUMO, cleaved with ULP1, label: 5'-biotin
[7] = target: T3, CMD1; assay: BLI; range over six structured DNAs; BLI: 20 mM Tris-HCl pH 8.0, 50 mM NaCl, 0.1% Tween-20, 0.5% BSA, 25 C; biotin-DNA on streptavidin sensors, 1:1 fit; conditions: protein: recombinant, tags: His6-SUMO, cleaved with ULP1, label: 5'-biotin
[8] = target: T3, CMD1; assay: BLI; range over dsDNA5-6; BLI: 20 mM Tris-HCl pH 8.0, 50 mM NaCl, 0.1% Tween-20, 0.5% BSA, 25 C; biotin-DNA on streptavidin sensors, 1:1 fit; conditions: protein: recombinant; tags: His6-SUMO, cleaved with ULP1; label: 5'-biotin

With O=C1O[C@H]([C@@H](O)CO)C(O)=C1O [VC] the “X-ray crystal structure, crystals soaked with sodium L-ascorbate” value [1] was “crystals of CMD1 in complex with VC were obtained by soaking the apo CMD1 crystals”.

B1: 14-nt DNA (crystal), unmodified (dsDNA)
DNA 1: CCCGCGCGGGATGT
DNA 2: CCCGCGCGGGATGT
B1: binds [2].

B2: dsDNA4 (40 bp, GC-rich) (dsDNA)
DNA 1: GACATCGGCGCGGGGTTCAGCCCCGGCCGTATTGGGGCTC
DNA 2: GAGCCCCAATACGGCCGGGGCTGAACCCCGCGCCGATGTC
Molecule B2 has a Kd [3] of roughly 2220 nM.

B3: dsDNA8 (10-30 bp) (dsDNA)
DNA 1: ACTTACTGCCAATATAGTAT
DNA 2: ATACTATATTGGCAGTAAGT
With B3 the Kd [4] was roughly 1930 nM.

B4: 14-nt 5mC-DNA (BLI) (dsDNA)
DNA 1: CCCGCGCGGGATGT
DNA 2: CCCGCGCGGGATGT
modifications: 5mC at position 3 of both strands
B4 showed a Kd [5] of 810 ± 30 nM and a Kd ([6]; 10 bp palindromic duplex, 3' overhang 4 nt on both strands) of 2010 ± 110 nM.

B5: Y-DNA (structured_DNA)
DNA 1: GCTTTAACTTACATAAATGCCAATATAGTATGCGTATTGC
DNA 2: TACCGCATACGCCTATATTGGCATTTATGTAAGTTAAAGC
B5 gave a Kd ([7]; fork) of roughly 1380 nM.

B6: dsDNA5 (40 bp, 5mC) (dsDNA)
DNA 1: B5 DNA 1
DNA 2: GCAATACGCATACTATATTGGCATTTATGTAAGTTAAAGC
modifications: one or two 5mC
For B6, the Kd [8] was roughly 2400 nM.

B7: 5'-flap DNA (structured_DNA)
DNA 1: B5 DNA 1
DNA 2: B5 DNA 2
DNA 3: GCAATACGCATA
Work on B7 yielded a Kd ([7]; 5' flap) of roughly 1380 nM.

B8: dsDNA6 (40 bp, 5mC) (dsDNA)
DNA 1: B5 DNA 1
DNA 2: B6 DNA 2
modifications: one or two 5mC
Work on B8 yielded a Kd [8] of roughly 2400 nM.

B9: 3'-flap DNA (structured_DNA)
DNA 1: B5 DNA 1
DNA 2: B5 DNA 2
DNA 3: GCGTATGCGGTA
B9 gave a Kd ([7]; 3' flap) of roughly 1380 nM.

B10: dsDNA1 (40 bp, AT-rich) (dsDNA)
DNA 1: B5 DNA 1
DNA 2: B6 DNA 2
B10 showed a Kd [3] of roughly 2220 nM.

B11: dsDNA2 (40 bp, AT-rich) (dsDNA)
DNA 1: ATACTTACGAATCTGAACTTAGATCCTAATATACATTCTA
DNA 2: TAGAATGTATATTAGGATCTAAGTTCAGATTCGTAAGTAT
In the case of B11, the Kd [3] is reported as roughly 2220 nM.

B12: ssDNA (40 nt) (ssDNA)
DNA: TTTTTTCTTTTTTCTTTTTTCTTTTTTCTTTTTTCTTTTT
In the case of B12, the Kd [6] is reported as 2770 nM.

B13: bubble DNA (structured_DNA)
DNA 1: GCTTTAACTTACATACCCCCCCCCCTAGTATGCGTATTGC
DNA 2: B6 DNA 2 with A17T, G20T, G21T, C22T, A23T
B13 showed a Kd ([7]; bubble) of roughly 1380 nM.

B14: dsDNA3 (40 bp, GC-rich) (dsDNA)
DNA 1: GCTGGCCCTGACATGGGTGCCAGCGTAGTGCGCGTAGCGC
DNA 2: GCGCTACGCGCACTACGCTGGCACCCATGTCAGGGCCAGC
B14 showed a Kd [3] of roughly 2220 nM.

B15: dsDNA9 (10-30 bp) (dsDNA)
DNA 1: AACTTACATAAATGCCAATATAGTATGCGT
DNA 2: ACGCATACTATATTGGCATTTATGTAAGTT
For B15, the Kd [4] was roughly 1930 nM.
